# Laboratory results published in patent publication US20140179593A1 (published 2014).
# Like-named read-outs stand apart in the source and are kept apart here. Starred links: 1 amine or outer side, 2 acyl side, 3 side chain; linkers in the order of their positions; H or OH if unused. Positions of bridges follow the written chain, without caps; N, C: chain ends. Non-standard residues stand in square brackets, D forms with d. αMeNva(5-ylidene) = C[C@@](CCC=[*:3])(N[*:1])C(=O)[*:2]; S8 = C=CCCCCCC[C@](C)(N)C(=O)O; SeMet = C[Se]CC[C@H](N)C(=O)O; S5 = C=CCCC[C@](C)(N)C(=O)O; Nle = CCCC[C@H](N)C(=O)O
# B1: hUbc12^Ac1-12 (NorLeu) 6, 10 (peptide)
# peptide: Ac-[Nle]IKLF[S5]LKQ[S5]KK-NH2
# modifications: staple 6-10
# SMILES: CCCC[C@H](NC(C)=O)C(=O)N[C@H](C(=O)N[C@@H](CCCCN)C(=O)N[C@@H](CC(C)C)C(=O)N[C@@H](Cc1ccccc1)C(=O)N[C@@]1(C)CCCC=CCCC[C@@](C)(C(=O)N[C@@H](CCCCN)C(=O)N[C@@H](CCCCN)C(N)=O)NC(=O)[C@H](CCC(N)=O)NC(=O)[C@H](CCCCN)NC(=O)[C@H](CC(C)C)NC1=O)[C@@H](C)CC
# notes: Stapled synthetic peptide
# B2: Acetyl-hUbc12^1-12 peptide (peptide)
# peptide: Ac-MIKLFSLKQQKK-NH2
# notes: Synthetic control peptide for the stapled peptide; also called hUbc12^Ac1-12
# B3: yUbc12^1-24 peptide (free N-terminus) (peptide)
# peptide: H-MLKLRQLQKKKQKENENSSSIQPN-NH2
# notes: Synthetic peptide, N-terminal extension of yeast Ubc12
# B4: hUbc12^Ac1-12 (Met) SS 6, 10 (peptide)
# peptide: Ac-MIKLF[S5]LKQ[S5]KK-NH2
# modifications: staple 6-10
# notes: Stapled synthetic peptide; 'SS' is not explained in the text
# B5: Acetyl-hUbc12^1-26 peptide (peptide)
# peptide: Ac-MIKLFSLKQQKKEEESAGGTKGSSKK-NH2
# notes: Synthetic peptide; also called hUbc12^Ac1-26
# B6: yUbc12^Ac1-12 (Met) 6, 10 (peptide)
# peptide: Ac-MLKLR[S5]LQK[S5]KQ-NH2
# modifications: staple 6-10
# SMILES: CSCC[C@H](NC(C)=O)C(=O)N[C@@H](CC(C)C)C(=O)N[C@@H](CCCCN)C(=O)N[C@@H](CC(C)C)C(=O)N[C@@H](CCCNC(=N)N)C(=O)N[C@@]1(C)CCCC=CCCC[C@@](C)(C(=O)N[C@@H](CCCCN)C(=O)N[C@@H](CCC(N)=O)C(N)=O)NC(=O)[C@H](CCCCN)NC(=O)[C@H](CCC(N)=O)NC(=O)[C@H](CC(C)C)NC1=O
# notes: Stapled synthetic peptide; also called Acetyl-yUbc12^1-12(6:10 Staple)
# B7: Acetyl-hUbc12^1-12(5:9Staple) peptide (peptide)
# peptide: Ac-MIKL[S5]SLK[S5]QKK-NH2
# modifications: staple 5-9
# notes: Printed as Ac-MIKLXSLKXQKK-NH2, X = 2-(4-pentenyl)alanine; Phe5 and Gln9 are replaced
# B8: Acetyl-hUbc12^2-26 peptide (peptide)
# peptide: Ac-IKLFSLKQQKKEEESAGGTKGSSKK-NH2
# notes: Synthetic peptide lacking Met1; also called hUbc12^Ac-2-26
# B9: hUbc12^1-26 peptide (free N-terminus) (peptide)
# peptide: H-MIKLFSLKQQKKEEESAGGTKGSSKK-NH2
# notes: Synthetic peptide, N-terminal extension of human Ubc12 (UBE2M)
# How the values were obtained:
# [1] = target: T1, hDcn1^P (potentiating neddylation / PONY domain of human Dcn1, DCUN1D1) (Homo sapiens, UniProt Q96GG9 62-259); test: ITC, two-site fit, second value
# T1 construct: also called DCUN1D1^P; SCCRO PONY domain
# T1 sequence (Q96GG9 62-259): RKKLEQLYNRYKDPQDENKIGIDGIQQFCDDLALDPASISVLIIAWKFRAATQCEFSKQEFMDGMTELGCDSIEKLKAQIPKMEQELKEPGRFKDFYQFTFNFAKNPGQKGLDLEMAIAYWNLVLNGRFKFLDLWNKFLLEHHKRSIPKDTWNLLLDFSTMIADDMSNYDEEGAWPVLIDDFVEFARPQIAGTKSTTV
# Method: (§1) Protein samples were buffer matched by desalting over a NAP-5 column (GE Healthcare) into 50 mM Hepes, 125 mM NaCl, 1 mM BME, pH 7.0 (ITC buffer). Peptides were dissolved by weight to a final concentration of 10 mM in ITC buffer and diluted further in ITC buffer as required for the experiments. […] The peptide ligands (4 mM) were constantly injected (1.5 μl). The interval time between each injection was 3 minutes and the duration of each injection was 3 seconds. […] Peptide ligands (250 μM) were constantly injected (2.5 μl). The interval time between each injection was three minutes and the duration of each injection was 5 seconds. […] The interval time between each injection was 3 minutes and the duration of each injection was 5 seconds. Obtained spectra were evaluated using Origin (V 7.0) to determine heats of binding and Kd values.
# [2] = target: T1, hDcn1^P (potentiating neddylation / …); test: ITC, two-site fit, first value
# Method: as §1
# [3] = target: T2, hDcn1^P (PONY domain of human Dcn1 / DCUN1D1 / SCCRO, residues 62 to 259) (Homo sapiens, UniProt Q96GG9 62-259); test: ITC, peptide titrated into hDcn1^P
# T2 construct: NEDD8 co-E3; Expressed as a GST fusion in E. coli; GST was removed with TEV protease; also called DCUN1D1^P
# T2 sequence (Q96GG9 62-259): as above
# Method: (§2) Specifically, Phe5 and Gln9 were replaced with (S)-2-(4′-pentenyl) alanine and these side-chains were covalently linked to test the effect of “stapling” an acetylated Ubc12 peptide into a helix (Bird et al. (2008) Methods Enzymol 446:369-386).
# as §1
# [4] = target: T3, hE1 for Nedd8 (APPBP1-UBA3, NAE1-UBA3) (Homo sapiens, UniProt Q13564 18-534; Q8TBC4 22-463, limits assumed); test: ITC, peptide titrated into hE1
# T3 construct: Heterodimeric E1 expressed in E. coli as described in earlier publications
# T3 sequence 1: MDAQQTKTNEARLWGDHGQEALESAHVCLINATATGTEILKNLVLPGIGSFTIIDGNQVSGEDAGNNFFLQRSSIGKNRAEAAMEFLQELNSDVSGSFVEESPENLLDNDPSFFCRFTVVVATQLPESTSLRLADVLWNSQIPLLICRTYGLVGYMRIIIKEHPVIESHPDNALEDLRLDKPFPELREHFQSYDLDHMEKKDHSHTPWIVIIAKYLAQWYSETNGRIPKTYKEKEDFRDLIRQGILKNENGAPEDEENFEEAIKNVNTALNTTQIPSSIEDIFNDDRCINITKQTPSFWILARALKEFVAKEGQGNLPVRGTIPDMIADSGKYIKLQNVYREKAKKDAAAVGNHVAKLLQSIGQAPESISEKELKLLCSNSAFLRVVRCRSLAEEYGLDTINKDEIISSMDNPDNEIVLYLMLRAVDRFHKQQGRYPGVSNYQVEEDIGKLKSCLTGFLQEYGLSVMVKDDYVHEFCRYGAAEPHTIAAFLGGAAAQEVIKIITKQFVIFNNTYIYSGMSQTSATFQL
# T3 sequence 2: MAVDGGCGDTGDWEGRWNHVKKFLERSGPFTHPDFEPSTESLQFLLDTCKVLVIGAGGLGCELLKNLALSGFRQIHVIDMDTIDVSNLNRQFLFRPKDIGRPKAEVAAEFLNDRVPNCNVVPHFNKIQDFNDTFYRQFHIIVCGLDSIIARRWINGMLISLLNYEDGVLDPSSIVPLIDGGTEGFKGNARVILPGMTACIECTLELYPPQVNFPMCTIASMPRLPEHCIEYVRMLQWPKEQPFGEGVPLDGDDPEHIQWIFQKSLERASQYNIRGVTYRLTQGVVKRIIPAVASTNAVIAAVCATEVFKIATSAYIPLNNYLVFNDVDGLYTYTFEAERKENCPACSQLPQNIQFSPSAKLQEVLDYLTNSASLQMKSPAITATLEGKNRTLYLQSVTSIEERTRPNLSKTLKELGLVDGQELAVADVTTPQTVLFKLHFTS
# Method: as §2, §1
# [5] = target: yDcn1^P (potentiating neddylation / PONY domain of Saccharomyces cerevisiae Dcn1) (Saccharomyces cerevisiae) (UniProt Q12395); test: ITC, peptide titrated into yDcn1^P
# [6] = target: T4, yE1 for yNedd8 (Ula1-Uba3) (Saccharomyces cerevisiae, UniProt Q12059 1-462, limits assumed); test: ITC, peptide titrated into yE1
# T4 construct: Heterodimeric E1 expressed in E. coli as described in earlier publications
# T4 sequence 1: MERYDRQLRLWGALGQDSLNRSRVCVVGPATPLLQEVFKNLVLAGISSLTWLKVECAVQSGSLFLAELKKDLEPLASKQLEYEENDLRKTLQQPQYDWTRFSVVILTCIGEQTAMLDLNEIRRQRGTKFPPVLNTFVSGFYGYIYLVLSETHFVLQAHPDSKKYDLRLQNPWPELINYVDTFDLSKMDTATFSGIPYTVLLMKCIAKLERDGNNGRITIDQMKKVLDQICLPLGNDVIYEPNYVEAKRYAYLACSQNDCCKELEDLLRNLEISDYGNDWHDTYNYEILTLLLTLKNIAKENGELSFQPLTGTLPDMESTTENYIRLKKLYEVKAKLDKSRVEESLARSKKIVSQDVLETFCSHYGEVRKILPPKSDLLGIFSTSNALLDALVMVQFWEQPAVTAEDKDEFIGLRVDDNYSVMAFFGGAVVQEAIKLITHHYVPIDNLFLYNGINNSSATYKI
# T4 sequence 2: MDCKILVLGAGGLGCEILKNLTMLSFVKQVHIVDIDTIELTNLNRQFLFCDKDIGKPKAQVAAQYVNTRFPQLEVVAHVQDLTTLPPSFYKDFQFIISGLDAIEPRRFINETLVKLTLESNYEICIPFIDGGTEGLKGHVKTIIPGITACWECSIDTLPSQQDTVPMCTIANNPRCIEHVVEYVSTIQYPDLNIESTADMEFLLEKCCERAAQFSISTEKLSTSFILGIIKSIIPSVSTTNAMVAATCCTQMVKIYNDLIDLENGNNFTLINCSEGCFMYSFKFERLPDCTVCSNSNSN
# Method: (§3) To gain insights into mechanistic roles of Ubc12 N-terminal acetylation, isothermal titration calorimetry (ITC) was used to quantify interactions with peptides corresponding to the N-termini of yeast or human Ubc12.
# as §1
# [7] = target: T5, hDcn3^P (PONY domain of human DCUN1D3) (Homo sapiens, UniProt Q8IWE4 86-304); test: ITC, peptide titrated into Dcn PONY domain
# T5 sequence: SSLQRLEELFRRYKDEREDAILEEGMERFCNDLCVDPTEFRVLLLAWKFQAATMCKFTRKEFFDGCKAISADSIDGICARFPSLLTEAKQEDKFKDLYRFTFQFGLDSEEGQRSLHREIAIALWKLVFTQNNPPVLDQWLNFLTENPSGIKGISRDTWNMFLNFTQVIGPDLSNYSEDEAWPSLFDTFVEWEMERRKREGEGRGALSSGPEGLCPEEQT
# Method: as §1
# [8] = target: T1, hDcn1^P (potentiating neddylation / …); test: ITC, peptide titrated into Dcn PONY domain
# Method: as §1
# [9] = target: T6, hDcn5^P (PONY domain of human DCUN1D5) (Homo sapiens, UniProt Q9BTE7 47-237); test: ITC, peptide titrated into Dcn PONY domain
# T6 sequence: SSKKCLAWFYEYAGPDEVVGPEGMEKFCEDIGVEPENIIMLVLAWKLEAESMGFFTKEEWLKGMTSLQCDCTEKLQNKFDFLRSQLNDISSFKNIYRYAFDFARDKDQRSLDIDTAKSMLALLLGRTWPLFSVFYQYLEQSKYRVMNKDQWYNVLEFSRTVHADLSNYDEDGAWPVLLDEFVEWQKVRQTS
# Method: as §1
# [10] = target: T3, hE1 for Nedd8 (APPBP1-UBA3, NAE1-UBA3); test: ITC, peptide titrated into hE1; remark: listed apart in the source
# Method: as §3, §1
# [11] = target: T2, hDcn1^P (PONY domain of human Dcn1 / …); test: ITC, peptide titrated into hDcn1^P; remark: listed apart in the source
# Method: as §3, §1
# [12] = target: T7, hDcn4^P (PONY domain of human DCUN1D4) (Homo sapiens, UniProt Q92564 102-292); test: ITC, peptide titrated into Dcn PONY domain
# T7 sequence: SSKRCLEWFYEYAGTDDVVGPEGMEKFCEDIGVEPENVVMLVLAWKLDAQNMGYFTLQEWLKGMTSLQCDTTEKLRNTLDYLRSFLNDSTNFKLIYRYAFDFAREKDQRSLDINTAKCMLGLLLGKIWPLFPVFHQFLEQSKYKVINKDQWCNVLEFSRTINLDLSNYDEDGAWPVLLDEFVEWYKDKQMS
# Method: as §1
# [13] = target: hDcn1^P (PONY domain of human Dcn1 / DCUN1D1 / SCCRO, residues 62 to 259) (Homo sapiens) (UniProt Q96GG9); test: ITC, peptide titrated into hDcn1^P
# hDcn1^P (PONY domain of human Dcn1 / DCUN1D1 / SCCRO, residues 62 to 259) (Homo sapiens), sequence (Q96GG9 62-259): as the sequence (Q96GG9 62-259) above
binder,measurement,setting,value
B1,Kd,[1],1200 nM
same,Kd,[2],800 nM
B2,ΔH,[3],-4.99 kcal/mol
same,ΔS,[3],8.79 cal/mol/deg
same,Kd,[4],630 nM
same,ΔH,[4],-11.5 kcal/mol
same,ΔS,[4],-11 cal/mol/deg
B3,N (stoichiometry),[5],1.16
same,ΔH,[5],3.78 kcal/mol
same,ΔS,[5],33.4 cal/mol/deg
same,Kd,[6],70 nM
same,N (stoichiometry),[6],1.05
same,ΔH,[6],-8.57 kcal/mol
same,ΔS,[6],2.65 cal/mol/deg
"Ac-MIKLF[αMeNva(5-ylidene)]LKQ[S8]KK-NH2 (staple 6-10) [hUbc12^Ac1-12 (Met) But:Oct 6, 10]",Kd,[7],1520 nM
same,Kd,[8],120 nM
same,Kd,[9],781 nM
B4,Kd,[1],187 nM
same,Kd,[2],1.8 nM
B5,Kd,[10],943 nM
same,N (stoichiometry),[10],1.14
same,ΔH,[10],-9.43 kcal/mol
same,ΔS,[10],-4.79 cal/mol/deg
same,Kd,[11],1110 nM
same,ΔH,[11],-6.11 kcal/mol
same,ΔS,[11],5.84 cal/mol/deg
B6,Kd,[1],37 nM
same,Kd,[2],38 nM
"Ac-[SeMet]IKLF[S5]LKQ[S5]KK-NH2 (staple 6-10, Stapled synthetic peptide) [hUbc12^Ac1-12 (SeMet) 6, 10]",Kd,[1],361 nM
same,Kd,[2],0.93 nM
B7,Kd,[3],150 nM
same,ΔH,[3],-3.39 kcal/mol
same,ΔS,[3],19.3 cal/mol/deg
same,binding result,[4],no binding
B8,Kd,[10],390 nM
same,N (stoichiometry),[10],1.04
same,ΔH,[10],-8.9 kcal/mol
same,ΔS,[10],-1.24 cal/mol/deg
same,ΔH,[11],1.72 kcal/mol
same,ΔS,[11],24.1 cal/mol/deg
Ac-MIKLFSLKQQKK-NH2 (also called Acetyl-hUbc12^1-12) [hUbc12^Ac1-12],Kd,[7],6300 nM
same,Kd,[12],13100 nM
B9,Kd,[10],585 nM
same,N (stoichiometry),[10],1.29
same,ΔH,[10],-8.88 kcal/mol
same,ΔS,[10],-1.99 cal/mol/deg
same,N (stoichiometry),[13],0.75
same,ΔH,[13],1.26 kcal/mol
same,ΔS,[13],22.2 cal/mol/deg
